Source: article PMC10302475
Where “and” joins values, the source holds several entries; their conditions need not be identical. Equal values may be shown once.

Biological target: Sox6 HMG domain (human) (UniProt P35712)
Assay: UV laser footprinting
Details: 10 mM Tris pH 7.4, 75 mM NaCl, 1 mM EDTA, 1 mM DTT, BSA (100 mg/mL [sic]), 0.01% NP40, 5% glycerol, 37 C, 50 nM DNA or nucleosome (Kdapp is not true Kd) …

Sox6 HMG domain (human), sequence (P35712 618-697): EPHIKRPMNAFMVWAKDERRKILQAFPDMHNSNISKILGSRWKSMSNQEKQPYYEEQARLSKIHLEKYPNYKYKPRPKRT

Sequence	K half	also measured
GCATGATTCTTAAGACCGAGTTCATCCCTTATGTGATGGACCCTATACGCGGCCGCCATCAGAATCCCGGTGCCGAGGCCGCTCAATTGGTCGTAGACAGCTCTAGCACCGCTTAAACGCACGTAGGACAATGGAGGCGCGTTTTGGACAATGGAGGCATTACTCCGGACAATGGAGGCACGTGTCAGATATATACATCGATGTGCATGTATTGAACAGCGACCTTGCCGGTGCCAGTCGGATAGAATTCCGGAC (double strand) [601-SHL024 naked DNA]	198 nM and 275 nM and 245 nM	
GCATGATTCTTAAGACCGAGTTCATCCCTTATGTGATGGACCCTATACGCGGCCGCCATCAGAATCCCGGTGCCGAGGCCGCTCAATTGGTCGTAGACAGCTCTAGCACCGCTTAAACGCACGTACGCGCTGTCCCCCGCGTTTTGGACAATGGAGGCATTACTCCCTAGTCTCCAGGCACGTGTCAGATATATACATCGATGTGCATGTATTGAACAGCGACCTTGCCGGTGCCAGTCGGATAGAATTCCGGAC (double strand) [601-SHL2 nucleosome]		K half (apparent Kd, SHL2 site): 374 nM
GCATGATTCTTAAGACCGAGTTCATCCCTTATGTGATGGACCCTATACGCGGCCGCCATCAGAATCCCGGTGCCGAGGCCGCTCAATTGGTCGTAGACAGCTCTAGCACCGCTTAAACGCACGTAGGACAATGGAGGCGCGTTTTAACCGCCAAGGGGATTACTCCCTAGTCTCCAGGCACGTGTCAGATATATACATCGATGTGCATGTATTGAACAGCGACCTTGCCGGTGCCAGTCGGATAGAATTCCGGAC (double strand) [601-SHL0 naked DNA]	100 nM	
GCATGATTCTTAAGACCGAGTTCATCCCTTATGTGATGGACCCTATACGCGGCCGCCATCAGAATCCCGGTGCCGAGGCCGCTCAATTGGTCGTAGACAGCTCTAGCACCGCTTAAACGCACGTACGCGCTGTCCCCCGCGTTTTAACCGCCAAGGGGATTACTCCGGACAATGGAGGCACGTGTCAGATATATACATCGATGTGCATGTATTGAACAGCGACCTTGCCGGTGCCAGTCGGATAGAATTCCGGAC (double strand) [601-SHL4 naked DNA]	180 nM	
GCATGATTCTTAAGACCGAGTTCATCCCTTATGTGATGGACCCTATACGCGGCCGCCATCAGAATCCCGGTGCCGAGGCCGCTCAATTGGTCGTAGACAGCTCTAGCACCGCTTAAACGCACGTAGGACAATGGAGGCGCGTTTTGGACAATGGAGGCATTACTCCGGACAATGGAGGCACGTGTCAGATATATACATCGATGTGCATGTATTGAACAGCGACCTTGCCGGTGCCAGTCGGATAGAATTCCGGAC (double strand) [601-SHL024 nucleosome]		K half (apparent Kd, SHL2 site of 3x): 550 nM; K half (apparent Kd, SHL4 site of 3x): 680 nM
GCATGATTCTTAAGACCGAGTTCATCCCTTATGTGATGGACCCTATACGCGGCCGCCATCAGAATCCCGGTGCCGAGGCCGCTCAATTGGTCGTAGACAGCTCTAGCACCGCTTAAACGCACGTACGCGCTGTCCCCCGCGTTTTAACCGCCAAGGGGATTACTCCGGACAATGGAGGCACGTGTCAGATATATACATCGATGTGCATGTATTGAACAGCGACCTTGCCGGTGCCAGTCGGATAGAATTCCGGAC (double strand) [601-SHL4 nucleosome]		K half (apparent Kd, SHL4 site): 490 nM
GCATGATTCTTAAGACCGAGTTCATCCCTTATGTGATGGACCCTATACGCGGCCGCCATCAGAATCCCGGTGCCGAGGCCGCTCAATTGGTCGTAGACAGCTCTAGCACCGCTTAAACGCACGTACGCGCTGTCCCCCGCGTTTTGGACAATGGAGGCATTACTCCCTAGTCTCCAGGCACGTGTCAGATATATACATCGATGTGCATGTATTGAACAGCGACCTTGCCGGTGCCAGTCGGATAGAATTCCGGAC (double strand) [601-SHL2 naked DNA]	136 nM	
